Columns and labels:
[1] = tested on: His6-SUMO-ecHOP1-wHTH WT (Ectocarpus (E. siliculosus; model brown alga)); test: EMSA
[2] = target: ecHOP1-HORMA (2xStrepII-ecHOP1-HORMA, residues 1-274) (Ectocarpus); test: ITC

Kd [2] | Substance | Kd [1]
– | 167 bp Widom DNA | 0.25 µM
7.2 µM | MBP-ecHOP1 CM1-1 (closure motif 1 of ecHOP1 isoform 1, residues 567-600) (domain or fragment) | –
60.3 µM | MBP-ecRED1 CM1 (putative closure motif 1 of ecRED1) (domain or fragment) | –
10.6 µM | MBP-ecHOP1 CM2-1 (closure motif 2 of ecHOP1 isoform 1, residues 665-694) (domain or fragment) | –

— article doi:10.1101/2024.12.18.629156
